IntAct's records for PubMed 28335037

B1: E3 ubiquitin-protein ligase LRSAM1 (Homo sapiens), Q6UWE0 (parent)
chain: MPLFFRKRKPSEEARKRLEYQMCLAKEAGADDILDISKCELSEIPFGAFATCKVLQKKVLIVHTNHLTSLLPKSCSLLSLATIKVLDLHDNQLTALPDDLGQLTALQVLNVERNQLMQLPRSIGNLTQLQTLNVKDNKLKELPDTVGELRSLRTLNISGNEIQRLPQMLAHVRTLEMLSLDASAMVYPPREVCGAGTAAILQFLCKESGLEYYPPSQYLLPILEQDGIENSRDSPDGPTDRFSREELEWQNRFSDYEKRKEQKMLEKLEFERRLELGQREHTQLLQQSSSQKDEILQTVKEEQSRLEQGLSEHQRHLNAERQRLQEQLKQTEQNISSRIQKLLQDNQRQKKSSEILKSLENERIRMEQLMSITQEETESLRRRDVASAMQQMLTESCKNRLIQMAYESQRQNLVQQACSSMAEMDERFQQILSWQQMDQNKAISQILQESAMQKAAFEALQVKKDLMHRQIRSQIKLIETELLQLTQLELKRKSLDTESLQEMISEQRWALSSLLQQLLKEKQQREEELREILTELEAKSETRQENYWLIQYQRLLNQKPLSLKLQEEGMERQLVALLEELSAEHYLPIFAHHRLSLDLLSQMSPGDLAKVGVSEAGLQHEILRRVQELLDAARIQPELKPPMGEVVTPTAPQEPPESVRPSAPPAELEVQASECVVCLEREAQMIFLNCGHVCCCQQCCQPLRTCPLCRQDIAQRLRIYHSS

Variants of: B1
Conditions: with ube2b_rabit UBE2B

Row | effect of a mutation on the interaction | Variant
1 | disrupting interaction strength | P707L
2 | disrupting interaction strength | C694Y
3 | with no effect | Q573K
